Consider four molecules from article doi:10.1101/545814 (bioRxiv, 2019).

The labels stand for the following.
B4: 3X FLAG-Swi6^HP1 (recombinant, E. coli) (natural protein)
chain: MKKGGVRSYRRSSTSKRSVIDDDSEPELPSMTKEAIASHKADSGSSDNEVESDHESKSSSKKLKENAKEEEGGEEEEEDEYVVEKVLKHRMARKGGGYEYLLKWEGYDDPSDNTWSSEADCSGCKQLIEAYWNEHGGRPEPSKRKRTARPKKPEAKEPSPKSRKTDEDKHDKDSNEKIEDVNEKTIKFADKSQEEFNENGPPSGQPNGHIESDNESKSPSQKESNESEDIQIAETPSNVTPKKKPSPEVPKLPDNRELTVKQVENYDSWEDLVSSIDTIERKDDGTLEIYLTWKNGAISHHPSTITNKKCPQKMLQFYESHLTFRENE

What all share (test): pull-down
Assay [1] addresses B4.
Assay [2] has as its target T1, MBP-Epe1 (wild-type, recombinant, full length) (S. pombe, UniProt O94603 1-948).
T1 sequence: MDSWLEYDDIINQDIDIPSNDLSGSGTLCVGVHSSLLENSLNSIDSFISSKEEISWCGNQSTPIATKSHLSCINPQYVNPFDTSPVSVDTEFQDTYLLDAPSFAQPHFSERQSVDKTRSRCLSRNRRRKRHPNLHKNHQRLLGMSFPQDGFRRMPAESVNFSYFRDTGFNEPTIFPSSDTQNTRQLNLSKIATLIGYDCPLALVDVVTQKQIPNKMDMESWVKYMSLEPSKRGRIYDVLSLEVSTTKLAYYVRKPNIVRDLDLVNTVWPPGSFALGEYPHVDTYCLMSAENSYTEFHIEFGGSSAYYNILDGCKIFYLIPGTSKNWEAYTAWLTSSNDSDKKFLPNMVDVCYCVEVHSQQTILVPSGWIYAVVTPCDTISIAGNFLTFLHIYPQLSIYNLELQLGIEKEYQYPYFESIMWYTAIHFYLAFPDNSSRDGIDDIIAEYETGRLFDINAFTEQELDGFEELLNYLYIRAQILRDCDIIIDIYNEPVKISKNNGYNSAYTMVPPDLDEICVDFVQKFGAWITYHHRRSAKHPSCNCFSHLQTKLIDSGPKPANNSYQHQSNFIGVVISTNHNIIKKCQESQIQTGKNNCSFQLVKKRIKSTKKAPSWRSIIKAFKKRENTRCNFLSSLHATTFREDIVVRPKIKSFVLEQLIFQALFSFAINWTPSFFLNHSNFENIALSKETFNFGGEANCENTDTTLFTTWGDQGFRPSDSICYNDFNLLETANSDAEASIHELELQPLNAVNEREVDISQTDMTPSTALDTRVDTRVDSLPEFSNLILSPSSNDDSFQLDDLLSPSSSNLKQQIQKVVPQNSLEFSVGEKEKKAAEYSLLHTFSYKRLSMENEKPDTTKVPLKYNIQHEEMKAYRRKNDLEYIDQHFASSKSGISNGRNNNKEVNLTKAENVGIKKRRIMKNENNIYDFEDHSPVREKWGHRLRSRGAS

Another assay has as its target T2, MBP-Epe1^434-948 (S. pombe, UniProt O94603 434-948).
T2 sequence: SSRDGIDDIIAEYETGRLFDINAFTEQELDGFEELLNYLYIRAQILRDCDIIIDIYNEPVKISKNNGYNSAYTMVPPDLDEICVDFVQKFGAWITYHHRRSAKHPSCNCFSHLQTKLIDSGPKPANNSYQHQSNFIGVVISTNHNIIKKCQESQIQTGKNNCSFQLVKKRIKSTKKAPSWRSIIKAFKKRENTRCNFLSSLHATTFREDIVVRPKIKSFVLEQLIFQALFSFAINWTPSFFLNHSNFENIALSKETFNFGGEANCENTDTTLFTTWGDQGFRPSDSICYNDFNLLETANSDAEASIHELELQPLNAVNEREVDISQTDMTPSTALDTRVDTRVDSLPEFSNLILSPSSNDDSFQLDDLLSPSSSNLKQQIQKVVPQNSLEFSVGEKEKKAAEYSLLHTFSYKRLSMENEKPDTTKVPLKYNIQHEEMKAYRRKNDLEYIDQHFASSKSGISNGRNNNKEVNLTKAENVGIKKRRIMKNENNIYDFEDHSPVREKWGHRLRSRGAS

B1: MBP-Epe1^434-600 (domain or fragment)
chain: SSRDGIDDIIAEYETGRLFDINAFTEQELDGFEELLNYLYIRAQILRDCDIIIDIYNEPVKISKNNGYNSAYTMVPPDLDEICVDFVQKFGAWITYHHRRSAKHPSCNCFSHLQTKLIDSGPKPANNSYQHQSNFIGVVISTNHNIIKKCQESQIQTGKNNCSFQLV
Regarding B1, in assay [1], the binding result is reported as “binds”.

B2: 3X-FLAG Swi6^HP1 W104A (natural protein)
chain: MKKGGVRSYRRSSTSKRSVIDDDSEPELPSMTKEAIASHKADSGSSDNEVESDHESKSSSKKLKENAKEEEGGEEEEEDEYVVEKVLKHRMARKGGGYEYLLKAEGYDDPSDNTWSSEADCSGCKQLIEAYWNEHGGRPEPSKRKRTARPKKPEAKEPSPKSRKTDEDKHDKDSNEKIEDVNEKTIKFADKSQEEFNENGPPSGQPNGHIESDNESKSPSQKESNESEDIQIAETPSNVTPKKKPSPEVPKLPDNRELTVKQVENYDSWEDLVSSIDTIERKDDGTLEIYLTWKNGAISHHPSTITNKKCPQKMLQFYESHLTFRENE
For B2, the binding result in assay [2] is listed as “binds”.

B3: 3X FLAG-Swi6^HP1 purified from fission yeast cells (natural protein)
chain: MKKGGVRSYRRSSTSKRSVIDDDSEPELPSMTKEAIASHKADSGSSDNEVESDHESKSSSKKLKENAKEEEGGEEEEEDEYVVEKVLKHRMARKGGGYEYLLKWEGYDDPSDNTWSSEADCSGCKQLIEAYWNEHGGRPEPSKRKRTARPKKPEAKEPSPKSRKTDEDKHDKDSNEKIEDVNEKTIKFADKSQEEFNENGPPSGQPNGHIESDNESKSPSQKESNESEDIQIAETPSNVTPKKKPSPEVPKLPDNRELTVKQVENYDSWEDLVSSIDTIERKDDGTLEIYLTWKNGAISHHPSTITNKKCPQKMLQFYESHLTFRENE
On to B3, for which, in assay [2], the binding result is “binds”.

Turning to B4, the binding result (in the assay with MBP-Epe1^434-948; in assay [2]) was “binds” in each case.
